This note sets out measurements from US20240101645A1 (HENRY M JACKSON FOUNDATION FOR THE ADVANCEMENT OF MILITARY …, published 2024).

Substitutions are numbered along the chain they refer to.

B1: COV_2125 (antibody, V domains shown)
VH: EVQLVESGGGVVQPGRSLRLSCAASGFTFSSYGMHWVRQAPGKGLEWVAVISYDGSNKYYADSVKGRFTISRDNSKNTLSLQMNSLRPEDTAVYYCAKDSPYYYDSSGYYPGYFQDWGQGSLVTVSS
VL: DIQMTQSPSSLSASIGDRVTITCRASQTISDYLNWYQQKPGKAPNLLIYAASTLQSGVPSRFSGSGSGTDFTLTISSLQPEDFATYYCQQSYITPRTFGQGTKVEIK
notes: human IgG1
B2: COV_1184 (antibody, V domains shown)
VH: QVQLQQWGAGLLKPSETLSLTCAVYGGSFSGYYWSWIRQPPGKGLEWIGEINHSGNTTYNPSLKSRVTISVDTSKNQFSLKLSSVTAADTAVYYCARGLVITYYYDSSGKPFDPWGQGTLVTVSS
VL: not shown
notes: human IgG1
B3: COV_2032 (antibody, V domains shown)
VH: EVQLVESGGGLVQPGGSLRLSCAASGFTFTTYWMHWVRQAPGKGLVWVSRIKTDGSSTNYADSVKGRFTISRDNAKNMLYLQMNSLRAEDTAVYYCAREGPVSIVYFDYWGQGTLVTVSS
VL: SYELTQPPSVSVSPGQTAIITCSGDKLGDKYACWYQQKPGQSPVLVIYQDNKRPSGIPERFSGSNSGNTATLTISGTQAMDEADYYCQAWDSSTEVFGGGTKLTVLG
notes: human IgG1
B4: COV_1154 (antibody, V domains shown)
VH: EVQLVESGGGLVKPGGSLRLSCAASGFRFSDYNMNWVRQAPGKGLEWVSYISSSSSYIYYADSVKGRFTISRDNAKNSLYLQMNSLRGEDTAVYSCAREASGAYYFDRSGYFDYWGQGTLVTVSP
VL: DIQMTQSPSTLSASVGDRVTITCRASQSISSWLAWYQQKPGKAPNLLIYKASSLESGVPSRFSGSGSGTEFTLTISSLQPYDFATYYCQQYNSYPWAFGQGTKVEMKR
notes: human IgG1
B5: COV_1145 (antibody, V domains shown)
VH: QVQLVESGGGVVQPGRSLRLSCAASGFTFSSYGMHWVRQAPGKGLEWVAVIWYDGSNKYYADSVKGRFTISRDNSKNTLYLQMNSLRVEDTAVYYCAREGQLGATGLDCWGQGTLVSVSS
VL: SYELTQPPSVSVSPGQTARITCSGDALPKKYAYWYQQKSGQAPVLVIYEDSKRPSGIPERFSGSSSGTMATLTISGAQVEDEADYYCYSTDNSGNHWVFGGGTKLTVLG
notes: human IgG1
B6: COV_2215 (antibody, V domains shown)
VH: EVQLVESGGGLVKPGGSLRLSCAASGFTFSHAWMSWVRQAPGKGLEWVGRIKSKTDGGTADYAAPVKGRFTISRDDSKNTLYLQMNSLKTEDTAVYYCATIRYYYDSSAYLNDAFDIWGQGTMVTVSS
VL: B5 VL with N92S, W97R, G100A
notes: human IgG1
B7: COV_3069 (antibody, V domains shown)
VH: EVQLVESGGGLVKPGGSLRLSCAASGFTFGSYTMNWVRQAPGKGLEWVSSIDTTSSSIYYADSLKGRFAISRDSAKNSLYLQMNRLRAEDTAVYYCARGNGHSYDSSGYHYGMYFDYWGQGTLVTVSS
VL: DIQMTQSPSTLSASVGDRVTITCRASQSISRWLAWYQQKPGKAPKLLIYEVSSLENGVPSRFSGSRSGTEFTLTISSLQPDDFAIYYCQQYNTYSRTFGQGTKVEIKR
notes: human IgG1
B8: COV_2169 (antibody, V domains shown)
VH: EVQLVESGGGVVQPGRSLRLSCAASGFTFSRYAMHWVRQAPGKGLEWVAVISYEGSNKYYADSVKGRFTISRNNSNNTLSLQMNSLRPDDTAVYYCVRSGGHYFDAFDLWGQGTMVTVSS
VL: EIVLTQSPGTLSLSPGERATLSCRASQSVSRNYVAWYQQKPGQAPRLLIYGASSRATGIPDRFSGSGSGTDFTLTISRLEPEDFALYYCQQYGSSYTFGQGTKLEIKR
notes: human IgG1
B9: COV_3129 (antibody, V domains shown)
VH: QVQLQQWGAGLLKPSDTLSLTCAANGGGSFSGYYLGYIRQSPGKGLEWIGEINHNGGTNYNPSLKSRVTISGDTSKNQFSLKLSSVTAADTAIYYCARSRDSSLGDAVWYEYWGQGTLITVSS
VL: EIVLTQSPATLSLSPGERATLSCRASQSVDIYLAWYQQRPGQAPRLLISDASKRATGVPARFSGSGSGTDFTLTINSLEPEDFAIYYCQQRRDWPINFGQGTRLEIKR
notes: human IgG1
B10: COV_1177 (antibody, V domains shown)
VH: QVQLVESGGGVVQPGRSLRLSCAASGFTFSSYGMHWVRQAPGKGLEWVAVIWYDGSNKYYADSVKGRFTISRDNSKNTLYLQMNSLRAEDTAVYYCARDPLGAVAGYFDYWGQGTLVTVSS
VL: SYVLTQPPSVSVAPGQTARITCGGNNIGSKSVHWYQQKPGQAPVLVVYDDSDRPSGIPERFSGSNSGNTATLTISRVEAGDEADYYCQVWDSSSDHHWVFGGGTKLTVLG
notes: human IgG1
B11: COV_2205 (antibody, V domains shown)
VH: EVQLVESGGGLVKPGGSLRLSCAASGFTFSDYYMIWIRQAPGEGLEWVSYISSRSSYTNYADSVKGRFTISRDNARNSLYLQMNSLRAEDTAVYYCARGQHDLLTGYYSWAYFDYWGQGTLVTVSS
VL: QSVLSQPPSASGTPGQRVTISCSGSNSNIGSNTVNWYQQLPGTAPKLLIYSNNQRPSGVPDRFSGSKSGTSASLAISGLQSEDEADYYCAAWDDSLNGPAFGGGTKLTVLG
notes: human IgG1

The target in the first assay is T1, HCoV-229E spike antigens (bead panel) (HCoV-229E, UniProt P15423 16-1115).
T1 sequence: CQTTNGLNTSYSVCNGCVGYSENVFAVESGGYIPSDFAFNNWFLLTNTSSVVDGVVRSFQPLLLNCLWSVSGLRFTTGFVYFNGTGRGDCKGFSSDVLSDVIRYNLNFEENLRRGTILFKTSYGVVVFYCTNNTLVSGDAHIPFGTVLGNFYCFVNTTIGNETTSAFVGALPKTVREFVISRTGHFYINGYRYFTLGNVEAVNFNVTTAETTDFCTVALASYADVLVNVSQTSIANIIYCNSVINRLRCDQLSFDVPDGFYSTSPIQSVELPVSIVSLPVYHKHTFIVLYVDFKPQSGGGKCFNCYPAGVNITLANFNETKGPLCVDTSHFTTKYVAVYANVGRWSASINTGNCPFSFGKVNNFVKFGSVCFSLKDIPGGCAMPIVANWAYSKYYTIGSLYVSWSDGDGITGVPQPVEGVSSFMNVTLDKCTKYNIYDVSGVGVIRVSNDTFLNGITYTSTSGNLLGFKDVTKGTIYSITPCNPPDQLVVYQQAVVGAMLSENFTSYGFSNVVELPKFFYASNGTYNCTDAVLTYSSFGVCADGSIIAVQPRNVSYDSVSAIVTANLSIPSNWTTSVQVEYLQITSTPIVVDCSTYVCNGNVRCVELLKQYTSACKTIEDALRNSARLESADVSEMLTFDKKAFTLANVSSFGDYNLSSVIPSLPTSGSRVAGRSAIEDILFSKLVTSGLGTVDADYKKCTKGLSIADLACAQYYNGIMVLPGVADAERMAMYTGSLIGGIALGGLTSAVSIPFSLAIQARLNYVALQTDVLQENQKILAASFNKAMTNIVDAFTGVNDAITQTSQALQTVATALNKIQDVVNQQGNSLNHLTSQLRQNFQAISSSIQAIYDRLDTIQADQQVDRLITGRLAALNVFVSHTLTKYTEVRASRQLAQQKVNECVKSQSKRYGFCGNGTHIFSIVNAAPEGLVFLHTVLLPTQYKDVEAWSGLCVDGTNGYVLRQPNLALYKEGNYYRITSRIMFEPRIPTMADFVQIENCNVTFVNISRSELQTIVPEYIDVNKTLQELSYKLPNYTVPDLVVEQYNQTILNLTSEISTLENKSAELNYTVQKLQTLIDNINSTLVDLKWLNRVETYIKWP
The experiment in a line: multiplex bead assay.
In the case of B1, the binding result was “no binding”.
Turning to B2, the binding result is on record as “no binding”.
Turning to B3, the binding result is given as “no binding”.
For B4, the binding result is “no binding”.
The same measure, in the same setting: to B5 belongs “no binding”; to B6, “no binding”.
B7: the binding result was “no binding”.
For B8, the binding result was “no binding”.
Turning to B9, the binding result is “no binding”.
In the case of B10, the binding result was “no binding”.
On the same count and under the same terms, in the case of B11 it was “no binding”.

The target in the next assay is T2, HCoV-NL63 spike antigens (bead panel) (HCoV-NL63, UniProt Q6Q1S2 19-1296).
T2 sequence: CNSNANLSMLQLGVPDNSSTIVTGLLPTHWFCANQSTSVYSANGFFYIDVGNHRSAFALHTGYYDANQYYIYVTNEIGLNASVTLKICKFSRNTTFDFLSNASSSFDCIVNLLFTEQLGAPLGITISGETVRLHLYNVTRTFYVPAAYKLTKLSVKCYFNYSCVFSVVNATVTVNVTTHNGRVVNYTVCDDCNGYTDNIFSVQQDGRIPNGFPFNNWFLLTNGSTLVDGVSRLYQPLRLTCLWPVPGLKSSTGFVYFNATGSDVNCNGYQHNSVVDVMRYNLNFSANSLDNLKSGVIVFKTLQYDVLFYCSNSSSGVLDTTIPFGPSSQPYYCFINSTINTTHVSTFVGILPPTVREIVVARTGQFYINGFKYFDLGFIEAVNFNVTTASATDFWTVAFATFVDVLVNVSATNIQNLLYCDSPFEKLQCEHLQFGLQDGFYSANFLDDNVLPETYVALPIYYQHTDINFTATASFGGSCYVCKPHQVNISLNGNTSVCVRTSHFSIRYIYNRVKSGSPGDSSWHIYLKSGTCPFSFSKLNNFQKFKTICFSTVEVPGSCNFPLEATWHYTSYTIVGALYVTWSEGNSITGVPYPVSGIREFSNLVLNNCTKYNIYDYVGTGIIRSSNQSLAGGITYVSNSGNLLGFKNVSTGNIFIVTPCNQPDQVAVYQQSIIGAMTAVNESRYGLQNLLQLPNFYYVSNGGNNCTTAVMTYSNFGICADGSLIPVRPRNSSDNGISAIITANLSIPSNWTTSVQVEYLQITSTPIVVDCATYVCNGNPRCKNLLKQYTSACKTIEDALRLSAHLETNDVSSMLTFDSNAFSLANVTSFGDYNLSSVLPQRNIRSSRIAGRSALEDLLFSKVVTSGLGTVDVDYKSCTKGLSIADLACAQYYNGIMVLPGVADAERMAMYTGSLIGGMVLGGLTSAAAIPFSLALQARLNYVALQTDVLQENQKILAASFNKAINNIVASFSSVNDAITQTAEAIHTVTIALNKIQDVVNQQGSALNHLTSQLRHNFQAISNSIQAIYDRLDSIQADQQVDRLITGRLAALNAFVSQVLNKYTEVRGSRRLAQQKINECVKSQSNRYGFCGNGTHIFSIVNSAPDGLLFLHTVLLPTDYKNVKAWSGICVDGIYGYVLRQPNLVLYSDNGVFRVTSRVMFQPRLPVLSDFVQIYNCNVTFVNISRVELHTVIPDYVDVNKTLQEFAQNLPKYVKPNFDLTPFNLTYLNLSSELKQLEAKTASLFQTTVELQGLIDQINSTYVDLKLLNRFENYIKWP
Briefly: multiplex bead assay.
Turning to B1, the binding result is “no binding”.
In the case of B2, the binding result is “no binding”.
Turning to B3, the binding result is listed as “no binding”.
On to B4, for which the binding result is on record as “no binding”.
Regarding B5, the binding result was “no binding”.
The same measure, in the same setting: to B6 belongs “no binding”; to B7, “no binding”; to B8, “no binding”.
Regarding B9, the binding result is given as “no binding”.
Regarding B10, the binding result is given as “no binding”.
Regarding B11, the binding result is “no binding”.
